Results: PMC6331412, “Protein Disulfide Isomerase Modulates the Activation of Thyroid Hormone Receptors” (Frontiers in Endocrinology, 2018)
Primed or numbered codes have the meaning given here. Ends that are not written are not given here. FITC′ = fluorescein isothiocyanate label

Columns and labels:
[1] = target: Fluorescein-SRC1–1 Coactivator Peptide 3; test: fluorescence polarisation; TR+T3 or the complex TR+T3:PDIA1 titrated from 1 to 7,000 nM into 50 nM fluorescein-SRC1 peptide; buffer A or B; triplicate
[2] = target: hTRα full length labelled with FITC (human) (UniProt P10827); test: fluorescence polarisation; PDIA1 titrated from 0.012 to 25 μM into 50 nM TR-FITC pre-incubated with 3 times molar excess of T3; 20 mM sodium phosphate pH 7.4, 150 mM NaCl, 5 mM MgCl2, 1 mM DTT; 20°C; Hill fit
[3] = target: hTRβΔAB (amino acids 102–461) labelled with FITC (human) (UniProt P10828); test: as above
[4] = target: hTRα full length labelled with FITC (human) (UniProt P10827); test: fluorescence polarisation; reduced PDIA1 (pre-incubated with 0.5 mM DTT for 30 min) titrated from 0.012 to 25 μM into 50 nM TR-FITC; 20 mM sodium phosphate pH 7.4, 150 mM NaCl, 5 mM MgCl2, no DTT in the buffer; with and without T3 by the methods, not given for the values
[5] = target: hTRβΔAB (amino acids 102–461) labelled with FITC (human) (UniProt P10828); test: as above
[6] = target: hTRα full length, recombinant (human) (UniProt P10827); test: SEC; analytical gel filtration, Superdex 200 HR 10/300, buffer A or B with 150 mM NaCl and 2 mM DTT, 0.5 mL/min; hydrodynamic radii from calibration standards; proteins alone and mixed
[7] = target: hTRβΔAB (amino acids 102–461), recombinant (human) (UniProt P10828); test: as above
[8] = target: hTRα full length labelled with FITC (human) (UniProt P10827); test: fluorescence polarisation; oxidised PDIA1 (pre-incubated with 0.5 mM H2O2 for 30 min) titrated from 0.012 to 25 μM into 50 nM TR-FITC; 20 mM sodium phosphate pH 7.4, 150 mM NaCl, 5 mM MgCl2, no DTT in the buffer; with and without T3 by the methods, not given for the values
[9] = target: hTRβΔAB (amino acids 102–461) labelled with FITC (human) (UniProt P10828); test: as above
[10] = target: hTRα full length labelled with FITC (human) (UniProt P10827); test: fluorescence polarisation; PDIA1 titrated from 0.012 to 25 μM into 50 nM TR-FITC, without T3; 20 mM sodium phosphate pH 7.4, 150 mM NaCl, 5 mM MgCl2, 1 mM DTT; 20°C; Hill fit
[11] = target: hTRβΔAB (amino acids 102–461) labelled with FITC (human) (UniProt P10828); test: as above
[12] = target: T1, hTRβΔAB (amino acids 102–461), recombinant (human, UniProt P10828 102-461); test: fluorescence polarisation; TR+T3 or the complex TR+T3:PDIA1 titrated from 1 to 7,000 nM into 50 nM fluorescein-SRC1 peptide; buffer A or B; triplicate; settings: both partners purified
T1 construct: numbers fit TRβ1 (461 aa); Unlabelled protein, used in SEC, DLS and, pre-incubated with T3, in the SRC1 anisotropy; also called TRβDL; source: E. coli BL21(DE3), purified (Talon resin, SEC Superdex 75)
T1 sequence (looked up): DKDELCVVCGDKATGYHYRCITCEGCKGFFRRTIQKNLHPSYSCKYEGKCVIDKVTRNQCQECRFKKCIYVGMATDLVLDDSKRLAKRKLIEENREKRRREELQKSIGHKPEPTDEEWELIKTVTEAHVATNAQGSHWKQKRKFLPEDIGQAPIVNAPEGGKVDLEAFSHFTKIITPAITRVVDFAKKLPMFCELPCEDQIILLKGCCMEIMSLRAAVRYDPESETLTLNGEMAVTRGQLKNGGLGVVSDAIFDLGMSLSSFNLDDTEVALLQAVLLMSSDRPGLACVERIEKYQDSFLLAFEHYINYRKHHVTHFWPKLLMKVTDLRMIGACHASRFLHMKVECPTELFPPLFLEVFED

**Q.** Which Kd [1] does the source give for “hTRα full length, recombinant (from UniProt P10827-2 1-410) (receptor)” here?
**A.** Its Kd is 0.29 µM.

**Q.** “hPDIA1 full length, recombinant (from UniProt P07237 18-508) (enzyme)” was tested. Which Kd [2] did it give?
**A.** The Kd was 1.97 µM.

**Q.** And the Kd [3]?
**A.** Its Kd is 2.81 µM.

**Q.** And the Kd [4]?
**A.** The Kd was 10.7 µM.

**Q.** And the Kd [5]?
**A.** Its Kd is 4.54 µM.

**Q.** And the stoichiometry N [6]?
**A.** The stoichiometry N was 1.

**Q.** And the stoichiometry N [7]?
**A.** Its stoichiometry N is 1.

**Q.** And the Kd [8]?
**A.** The Kd was 7.9 µM.

**Q.** And the Kd [9]?
**A.** Its Kd is > 102 µM.

**Q.** And the Kd [10]?
**A.** Its Kd is 2.05 µM.

**Q.** And the Kd [11]?
**A.** Its Kd is 2.71 µM.

**Q.** How did the Kd [1] turn out when “TRα+T3:PDIA1 complex (from UniProt P10827-2 1-410; P07237 18-508)” was run?
**A.** The Kd was 0.7 µM.

**Q.** Which Kd [1] does the source give for “TRβ+T3:PDIA1 complex (from UniProt P10828 102-461; P07237 18-508)” here?
**A.** The Kd was 0.39 µM.

B1: Fluorescein-SRC1–1 Coactivator Peptide 3 (peptide)
peptide: {FITC′}-KYSQTSHKLVQLLTTTAEQQL
notes: also called SRC1 peptide; CoA peptide; source: bought: Life-technologies
**Q.** With B1 as the molecule, how does the Kd [12] read?
**A.** The Kd was 0.68 ± 0.06 µM.
